Positions count from the first letter of the chain named. Names may count otherwise. Like-named read-outs stand apart in the source and are kept apart here.
Tests used:
human latent myostatin [1] = target: T1, human latent myostatin (human, UniProt O14793 25-266; O14793 267-375); assay: SPR 37C pH7.4
T1 construct: non-covalent complex of two propeptides and the mature homodimer; also called human myostatin latent form
T1 sequence 1: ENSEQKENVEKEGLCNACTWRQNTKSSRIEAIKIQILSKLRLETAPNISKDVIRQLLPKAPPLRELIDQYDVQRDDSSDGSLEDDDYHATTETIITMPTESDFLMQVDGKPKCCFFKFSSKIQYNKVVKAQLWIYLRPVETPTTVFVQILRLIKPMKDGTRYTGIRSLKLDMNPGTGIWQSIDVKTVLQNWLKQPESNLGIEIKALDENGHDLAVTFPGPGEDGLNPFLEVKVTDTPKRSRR
T1 sequence 2: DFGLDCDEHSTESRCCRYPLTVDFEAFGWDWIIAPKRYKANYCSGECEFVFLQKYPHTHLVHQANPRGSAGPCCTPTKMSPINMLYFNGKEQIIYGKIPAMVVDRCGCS

mouse latent myostatin [2] = target: T2, mouse latent myostatin (mouse, UniProt O08689 26-267; O08689 268-376); assay: SPR 37C pH7.4
T2 sequence 1: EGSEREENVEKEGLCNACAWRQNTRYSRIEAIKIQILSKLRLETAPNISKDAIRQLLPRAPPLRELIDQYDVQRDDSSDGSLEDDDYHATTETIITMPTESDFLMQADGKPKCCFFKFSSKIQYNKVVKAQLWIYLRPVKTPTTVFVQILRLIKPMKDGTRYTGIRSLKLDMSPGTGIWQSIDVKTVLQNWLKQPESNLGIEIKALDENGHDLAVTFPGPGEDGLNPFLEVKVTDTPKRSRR
T2 sequence 2: T1 sequence 2

[3] = target: T3, cynomolgus monkey latent myostatin (cynomolgus monkey, UniProt Q95J86 25-266; Q95J86 267-375, limits assumed); assay: SPR 37C pH7.4
T3 construct: also called cyno latent myostatin
T3 sequence 1: T1 sequence 1 with V52A
T3 sequence 2: T1 sequence 2

mature myostatin = target: T4, mature myostatin (human (mature form 100% identical in …, UniProt O08689 268-376 (mouse entry))); assay: ELISA, biotinylated antigen on streptavidin plate
T4 construct: biotinylated in the ELISA; also called myostatin mature form; active myostatin
T4 sequence: T1 sequence 2

[4] = target: T5, Human GDF11 with Flag-tag on N-terminus (human, UniProt O95390 11-407); assay: ELISA, biotinylated antigen on streptavidin plate
T5 construct: processing of the expressed protein not described; also called Flag-hGDF11; human latent GDF11
T5 sequence: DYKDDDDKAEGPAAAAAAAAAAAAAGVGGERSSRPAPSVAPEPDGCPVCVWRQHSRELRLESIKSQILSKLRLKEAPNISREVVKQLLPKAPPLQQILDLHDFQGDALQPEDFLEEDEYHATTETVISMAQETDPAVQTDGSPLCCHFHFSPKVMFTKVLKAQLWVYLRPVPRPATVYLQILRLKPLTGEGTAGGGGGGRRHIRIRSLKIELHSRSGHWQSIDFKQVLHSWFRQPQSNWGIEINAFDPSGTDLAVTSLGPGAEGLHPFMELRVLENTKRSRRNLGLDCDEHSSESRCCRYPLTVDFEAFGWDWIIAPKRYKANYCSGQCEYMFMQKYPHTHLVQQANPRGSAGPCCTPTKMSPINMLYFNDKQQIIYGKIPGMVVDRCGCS

human latent myostatin [5] = target: T1, human latent myostatin; assay: SPR 37C pH7.4; remark: listed apart in the source
human latent myostatin [6] = target: T1, human latent myostatin; assay: SPR, dissociation phase at pH5.8
human latent myostatin [7] = target: T1, human latent myostatin; assay: SPR, dissociation phase at pH5.8; remark: listed apart in the source
[8] = target: T3, cynomolgus monkey latent myostatin; assay: SPR 37C pH5.8; pH 5.8
human latent myostatin [9] = target: T1, human latent myostatin; assay: SPR 37C pH7.4; remark: listed apart in the source
mouse latent myostatin [10] = target: T2, mouse latent myostatin; assay: SPR 37C pH7.4; remark: listed apart in the source
[11] = target: T3, cynomolgus monkey latent myostatin; assay: SPR 37C
[12] = target: T3, cynomolgus monkey latent myostatin; assay: SPR 37C pH7.4; pH 7.4
[13] = target: T6, cyno Fc gamma RIIIaS extracellular domain, His-tagged (cynomolgus monkey, UniProt Q8SPW2 21-206 at identity 1.00)); assay: SPR 25C
T6 construct: also called cynoFcgRIIIaS
T6 chain: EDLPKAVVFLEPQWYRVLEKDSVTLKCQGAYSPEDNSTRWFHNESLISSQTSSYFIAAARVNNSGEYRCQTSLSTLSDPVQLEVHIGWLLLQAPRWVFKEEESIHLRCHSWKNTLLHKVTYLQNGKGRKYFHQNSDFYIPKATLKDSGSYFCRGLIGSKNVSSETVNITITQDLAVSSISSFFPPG

[14] = target: T7, human Fc gamma RIIb extracellular domain, His-tagged (human, UniProt P31994 43-217); assay: SPR 25C
T7 construct: also called FcgRIIb
T7 sequence: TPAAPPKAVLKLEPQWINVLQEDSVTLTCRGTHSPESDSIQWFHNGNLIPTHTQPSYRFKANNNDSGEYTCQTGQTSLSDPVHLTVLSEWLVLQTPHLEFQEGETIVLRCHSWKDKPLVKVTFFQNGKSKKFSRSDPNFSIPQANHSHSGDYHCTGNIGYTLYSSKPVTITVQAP

[15] = target: T8, human Fc gamma RIIaH extracellular domain, His-tagged (human, UniProt P12318 34-217); assay: SPR 25C
T8 construct: also called FcgRIIaH; human Fc gamma RIIa (type H)
T8 sequence: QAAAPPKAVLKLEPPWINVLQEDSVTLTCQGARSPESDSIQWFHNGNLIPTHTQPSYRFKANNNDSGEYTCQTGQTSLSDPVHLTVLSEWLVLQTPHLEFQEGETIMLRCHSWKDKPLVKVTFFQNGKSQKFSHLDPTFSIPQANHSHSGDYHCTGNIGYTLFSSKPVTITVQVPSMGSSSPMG

[16] = target: T9, human Fc gamma RIIaR extracellular domain, His-tagged (human, UniProt P12318 34-217); assay: SPR 25C
T9 construct: also called FcgRIIaR; human Fc gamma RIIa (type R)
T9 chain: T8 sequence with H134R

[17] = target: T10, human Fc gamma RIIIaV extracellular domain, His-tagged (human, UniProt P08637 17-208); assay: SPR 25C
T10 construct: also called FcgRIIIaV

GST-hMSTN 121-220aa = target: T11, GST-hMSTN 121-220aa (human, UniProt A1C2U3 121-220 (Pongo pygmaeus entry)); assay: Western blot
T11 construct: not shown: GST tag of pGEX4.1 vector
T11 sequence: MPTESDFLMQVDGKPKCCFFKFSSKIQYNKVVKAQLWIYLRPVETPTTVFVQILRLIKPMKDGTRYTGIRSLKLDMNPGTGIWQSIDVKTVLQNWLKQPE

GST-hMSTN 61-160aa = target: T12, GST-hMSTN 61-160aa (human, UniProt O14793 61-160); assay: Western blot
T12 construct: not shown: GST tag of pGEX4.1 vector
T12 sequence: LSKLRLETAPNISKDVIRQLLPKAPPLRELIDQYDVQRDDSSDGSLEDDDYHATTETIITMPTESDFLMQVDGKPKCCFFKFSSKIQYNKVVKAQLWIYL

GST-hMSTN 141-241aa = target: T13, GST-hMSTN 141-241aa (human, UniProt A1C2U3 141-241 (Pongo pygmaeus entry)); assay: Western blot
T13 construct: not shown: GST tag of pGEX4.1 vector
T13 sequence: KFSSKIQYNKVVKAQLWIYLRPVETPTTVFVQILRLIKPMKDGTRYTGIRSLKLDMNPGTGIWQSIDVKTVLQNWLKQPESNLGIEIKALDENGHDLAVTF

GST-hMSTN 101-200aa = target: T14, GST-hMSTN 101-200aa (human, UniProt A1C2U3 101-200 (Pongo pygmaeus entry)); assay: Western blot
T14 construct: not shown: GST tag of pGEX4.1 vector
T14 sequence: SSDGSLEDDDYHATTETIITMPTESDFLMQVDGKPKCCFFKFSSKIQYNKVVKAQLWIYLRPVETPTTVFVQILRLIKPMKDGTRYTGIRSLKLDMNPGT

GST-hMSTN 81-180aa = target: T15, GST-hMSTN 81-180aa (human, UniProt A1C2U3 81-180 (Pongo pygmaeus entry)); assay: Western blot
T15 construct: not shown: GST tag of pGEX4.1 vector
T15 sequence: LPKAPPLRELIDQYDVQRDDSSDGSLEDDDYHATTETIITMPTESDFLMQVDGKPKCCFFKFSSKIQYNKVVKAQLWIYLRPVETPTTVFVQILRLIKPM

T10 sequence (P08637 17-208 F176V): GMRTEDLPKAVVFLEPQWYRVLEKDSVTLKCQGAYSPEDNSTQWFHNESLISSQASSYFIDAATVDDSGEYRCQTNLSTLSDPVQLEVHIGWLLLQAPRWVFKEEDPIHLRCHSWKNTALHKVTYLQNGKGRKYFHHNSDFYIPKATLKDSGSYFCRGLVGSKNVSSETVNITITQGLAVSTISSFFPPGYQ

B1: MS_MST1032Ha-G1m/MST1032La-k0MC (antibody, human IgG1, kappa, V domains shown)
VH: QSLEESGGRLVTPGGSLTVTCRVSGIDLSSYDISWVRQAPGKGLEWIGIISYAGSTYYASWAKGRFTISKTSTTVDLKMTSLTTEDTATYFCARGVPAYSTGGDLWGPGTLVTVSS
VL: AQVLTQTASSVSAAVGGTVTINCQSSQSVYDNNWLSWFQQKPGQPPKLLIYWASTLASGVPSRFKGSGSGTQFTLTISDLECDDAATYYCAGGYGGGLYAFGGGTKVEIKR
notes: rabbit/human chimeric; also called MST1032-G1m
Human latent myostatin [1]
  Kd: 76.6 pM
  koff: 8.65e-05 s⁻¹
  kon: 1.13e+06 M⁻¹ s⁻¹
Mouse latent myostatin [2]
  Kd: 57.9 pM
  koff: 8.16e-05 s⁻¹
  kon: 1.41e+06 M⁻¹ s⁻¹
[3]
  Kd: 71.7 pM
  koff: 7.79e-05 s⁻¹
  kon: 1.09e+06 M⁻¹ s⁻¹
Mature myostatin
  binding result: no binding
[4]
  binding result: no binding
Human latent myostatin [5]
  Kd: 76.6 pM
  koff: 8.65e-05 s⁻¹
  kon: 1.13e+06 M⁻¹ s⁻¹

B2: Ab002 (M103205H001/M103202L000) (antibody, V domains shown)
VH: QVTLKESGPVLVKPTETLTLTCTVSGIDLSHYDISWVRQAPGKGLEWVGIISYAGSTYYASWAKGRLTISKDTSKNQVVLTMTNMDPVDTATYYCARGVPAYSTGGDLWGQGTLVTVSS
VL: DIVMTQSPATLSLSPGERATLSCQSSQSVYDNNWLSWFQQKPGQPPKLLIYWASTLASGVPSRFSGSGSGTDFTLTISSLQPEDAATYYCAGGYGGGLYAFGQGTKVEIKR
notes: variant of MS1032LO00-SG1
Human latent myostatin [6]
  fold faster dissociation rate at pH5.8 than Ab001: 200 fold
Human latent myostatin [7]
  koff: 0.00609 s⁻¹

B3: MS_M103205H1186-SG1/M103202L889-SK1 (antibody, human IgG1, kappa, V domains shown)
VH: B2 VH with Y32D, S56K, T57K, T104H
VL: B2 VL with Q24T, D31H, N32A, S58Y, L98R
notes: also called MS1032LO18-SG1
[8]
  Kd: 80900 pM
Human latent myostatin [9]
  Kd: 329 pM
Mouse latent myostatin [10]
  Kd: 272 pM
[11]
  ratio of KD at pH 5.8/pH7.4: 229
[12]
  Kd: 354 pM

B4: M103205H795-MY009/M103202L889-SK1 (antibody, human IgG1, kappa)
heavy: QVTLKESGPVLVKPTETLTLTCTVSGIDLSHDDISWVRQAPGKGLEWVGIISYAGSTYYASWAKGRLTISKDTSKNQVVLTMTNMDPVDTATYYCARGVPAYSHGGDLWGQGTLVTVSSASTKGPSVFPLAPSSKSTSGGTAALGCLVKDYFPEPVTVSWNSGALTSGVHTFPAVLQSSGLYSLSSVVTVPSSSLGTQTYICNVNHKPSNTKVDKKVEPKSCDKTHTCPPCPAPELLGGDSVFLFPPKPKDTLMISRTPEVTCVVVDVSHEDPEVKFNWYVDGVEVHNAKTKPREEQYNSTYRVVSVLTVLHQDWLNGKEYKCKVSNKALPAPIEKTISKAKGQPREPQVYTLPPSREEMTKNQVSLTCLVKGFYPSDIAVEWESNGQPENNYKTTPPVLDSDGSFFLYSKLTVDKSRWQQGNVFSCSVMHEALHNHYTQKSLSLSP
light: DIVMTQSPATLSLSPGERATLSCTSSQSVYHANWLSWFQQKPGQPPKLLIYWASTLAYGVPSRFSGSGSGTDFTLTISSLQPEDAATYYCAGGYGGGRYAFGQGTKVEIKRTVAAPSVFIFPPSDEQLKSGTASVVCLLNNFYPREAKVQWKVDNALQSGNSQESVTEQDSKDSTYSLSSTLTLSKADYEKHKVYACEVTHQGLSSPVTKSFNRGEC
notes: SG1 with P238D (EU); also called MS1032LO06-MY009; copies: 2 + 2
[13]
  binding result: binds
[14]
  binding result: binds
[15]
  binding result: binds

B5: GpH7-B3 G237D/GpL16-k0 (antibody, human IgG1, kappa)
heavy: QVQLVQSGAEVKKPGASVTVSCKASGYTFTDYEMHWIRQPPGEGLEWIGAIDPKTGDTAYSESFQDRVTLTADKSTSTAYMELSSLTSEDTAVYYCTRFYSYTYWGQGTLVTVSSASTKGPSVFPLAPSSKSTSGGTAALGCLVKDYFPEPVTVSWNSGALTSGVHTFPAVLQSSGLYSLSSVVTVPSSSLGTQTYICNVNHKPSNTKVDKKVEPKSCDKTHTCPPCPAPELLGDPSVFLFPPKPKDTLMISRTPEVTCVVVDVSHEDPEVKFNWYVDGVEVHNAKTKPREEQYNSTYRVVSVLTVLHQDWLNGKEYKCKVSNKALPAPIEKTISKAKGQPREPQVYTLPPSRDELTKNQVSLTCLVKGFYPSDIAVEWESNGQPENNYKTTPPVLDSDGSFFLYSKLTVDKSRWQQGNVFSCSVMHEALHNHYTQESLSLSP
light: DIVMTQSPLSLPVTPGEPASISCQASESLVHSNRNTYLHWYLQKPGQSPQLLIYKVSNRFSGVPDRFSGSGSGTDFTLKISRVEAEDVGVYYCSQNTHVPPTFGQGTKVEIERTVAAPSVFIFPPSDEQLKSGTASVVCLLNNFYPREAKVQWKVDNALQSGNSQESVTEQDSKDSTYSLSSTLTLSKADYEKHKVYACEVTHQGLSSPVTKSFNRGEC
notes: copies: 2 + 2
[16]
  relative binding: 0 parent B3=100
[17]
  relative binding: 0 parent B3=100

B6: MST1572 (antibody, human IgG1, kappa, V domains shown)
VH: QSVEESGGRLVTPGTPLTLTCTVSGFSLSSYAMSWVRQAPGKGLEWIGIIYGVGSTYYASWAKGRFTISKTSTTVDLKIASPTTEDTATYFCARDDYGWGYTNLWGPGTLVTVSS
VL: QVLTQTPSSVSAAVGGTVTINCQSSQSVYNNNYLAWFQQKPGQPPKLLIYDASKLASGVPSRFKGSGSGTQFTLTISGVQCDDAATYYCQGSYYSSGWYRAFGGGTKVEIKR
GST-hMSTN 121-220aa
  binding result: no binding
GST-hMSTN 61-160aa
  binding result: no binding
GST-hMSTN 141-241aa
  binding result: no binding
GST-hMSTN 101-200aa
  binding result: no binding
GST-hMSTN 81-180aa
  binding result: no binding

— patent EP4755449A2 (CHUGAI SEIYAKU KABUSHIKI KAISHA, dated 2026)
